# B1: PcaA (PCA 4,5-dioxygenase) (Pseudarthrobacter phenanthrenivorans Sphe3) (protein)
# chain: MTLDKPYNDVPGTTIFDADQARKGYNLNQFCMSLMKPENRERYLADRGAYLDEWPLNPVQRQAVLDIDLNTCIAEGGNIYFLAKIGATHGLSFQQMAGSMTGMSEAAYRDMMIGGGRRPEGNRLKDLDGWTPPEPGEKAETVRQDAPAQYTSALFTSHVPAIGAAMDLGKTEEPYWKKVFSGYEWTREWAKENLPDVVILVYNDHATAFDSSIIPTFVLGTGAEYPVADEGYGPRPVPDVKGYPELAAHIAQSVIQDDFDLTLVNEMVVDHGLTVPLSLVYGDVEEWPVRVIPLAVNVVQYPVPSGRRCYELGRALRRALDKWDGEPLNVQIWGTGGMSHQLQGPRAGLINEEWDNAFLDHLIADPVGLTEWQHMEYVDEAGSEGIELVDWLIARGAMDDQFGGESPEVNHRFYHVPASNTAVGHLVLTNQTD
# notes: full-length single-subunit alpha-beta fusion from plasmid pASPHE302; 1302 bp amplicon NdeI/XhoI in pET29c(+), His-column purified from E. coli BL21(DE3); ~45 kDa on SDS-PAGE, predicted 48 kDa
# Substrate: O=C(O)c1ccc(O)c(O)c1
# Assay: spectrophotometric CHMS formation, nonlinear Michaelis-Menten fit
# Type: biochemical, Pseudarthrobacter phenanthrenivorans
# Settings: 100 mM glycine-NaOH pH 9.5, 20 °C, co-substrate O2, Fe(II)/L-ascorbate preincubation likely, not stated for the Km
protein,measurement,value
B1,Km,21 ± 1.6 µM

# Source: publication PMC8431788, “Characterization of Protocatechuate 4,5-Dioxygenase from Pseudarthrobacter phenanthrenivorans Sphe3 and In Situ Reaction Monitoring in the NMR Tube” (International Journal of Molecular Sciences, 2021)
